Article PMC10101095, “The Oxidative Stress-Induced Hypothetical Protein PG_0686 in Porphyromonas gingivalis W83 Is a Novel Diguanylate Cyclase” (Microbiology Spectrum, 2023)
Values joined by “and” are separate entries in the source; they are usually repeats but may differ in a detail not shown here. Equal values may be shown once.

Tests used:
[1] = molecular target: the molecule itself; test: SEC; Superdex 200 10/300 GL, 100 uL of 0.2 mg/mL rPG_0686, mobile phase 0.15 M ammonium bicarbonate, 0.1 mL/min; sizes calculated against Bio-Rad 1511901 protein standard
[2] = molecular target: the molecule itself; test: native gel or EMSA; native-PAGE of purified rPG_0686 / SEC fractions, with immunoblot

B1: recombinant PG_0686 (rPG_0686) protein of Porphyromonas gingivalis W83 (enzyme, UniProt Q7MWD6 1-517, looked up)
chain: MQVIKTNETFDSLDKSKLERMLDIKEAHREGHLTLEEAKERMKKEVGSISPEEFAAAEQLFKERDQDECQNEDVRTMLQLFEGLINPIRPDLPFGHPIDAYLRENDKAKELLDQADALLERTFIPNPWIELMETLMGYKLHFARKQNQLYSTLEQKGFDRPSTTMWTYDDHIRDEMNKAMSLLREKDYDSFPAAYKEMAIVLRDLMEKEELILYPTSLKLISDKEFEEMKHGDREIGFFLIDMPELDAPAKQSKEAHGQSFMAELGALLAKHGMGTGGQDDKAILDVAEGKLTLEQINLLFRHLPVDISFVDENELVCFYTDTKHRVFPRSKGVIGREVRNCHPPKSVHIVEEIIDKFRRGEQDRAEFWINKPGVFIYIVYVAIRDADGRFRGVMEMMQDCTRIRSLEGSRTLLTWDEEQSPAQGSKESESDTAGEDGIRPDTKLKSLLQRYPQLMDDLPTISSKFTLLRSPMAKVILPVATIKMMSERADIPSDMLIGKLESLIASYNKPDRSEEK
notes: PG_0686, hypothetical protein / diguanylate cyclase of Porphyromonas gingivalis W83; 517 amino acids, 60 kDa; the ORF of the PG_0686 gene cloned in-frame into pEXP5-NT/TOPO; domains hemerythrin (96-215), PAS10 (297-402), DUF-1858 (421-497); Number of copies in the native oligomer differs by method (SEC: decamer and pentamer; native-PAGE: octamer and tetramer); The vector pEXP5-NT/TOPO probably …
- stoichiometry N [1]: 10 and 5
- stoichiometry N [2]: 8 and 4
